In US20180335433A1, “COMPOSITIONS TARGETING PKC-THETA AND USES AND METHODS OF TREATING PKC-THETA PATHOLOGIES, ADVERSE IMMUNE RESPONSES AND DISEASES” (La Jolla Institute for Allergy and Immunology, priority 2011, published 2018):

Tests used:
[1] = test system: B6 CD4+ T cells, Th17 differentiation; assay: In vitro Th17 differentiation of retrovirally transduced CD4+ T cells; format: cell-based, mouse; conditions: ectopic expression, Th17 differentiation conditions
Procedure: (§1) (FIG. 6A) OT-II CD4^+ T cells were infected with retrovirus expressing Myc-tagged V3 domain, V3 mutated at P330/1/4/6A (V3-4PA), or PR motif-deleted V3 (V3-ΔPR). Infected cells (green) were harvested, stimulated, and fixed. Conjugates were stained with anti-Myc plus a secondary Alexa 555-coupled antibody (orange), and anti-PKCθ plus a secondary Alexa 647-coupled antibody (red). Cells were analyzed as in FIG. 1A. (FIG. 6B) Quantitative analysis of the results shown in (FIG. 6A) from 30-50 T-APC conjugates. ** p<0.05. (FIG. 6C) MCC-specific T hybridoma cells were cotransfected with indicated vector, together with RE/AP-Luc and β-Gal reporter plasmids. Cells were stimulated and analyzed as in FIG. 1C. […] Cytokine-producing cells were analyzed by intracellular staining 8 h after restimulation. […] Normalized luciferase activity was determined in triplicates. […]
(§2) Investigators have reported that the Th2 and Th17 immune responses are compromised in PKCθ^−/− mice, whereas the Th1 response remains relatively intact (Marsland, B. J. et al. J Exp Med 200, 181-189 (2004); Salek-Ardakani, S. et al. J Immunol 173, 6440-6447 (2004); Salek-Ardakani, S., et al. J Immunol 175, 7635-7641 (2005)). Therefore, ectopic expression of V3 was analyzed for inhibition of Th differentiation. […]

[2] = test system: Naïve CD4+ T cells from B6 mice, Treg (FoxP3+) cells; assay: In vitro Treg (FoxP3+) differentiation of retrovirally transduced CD4+ T cells; format: cell-based, mouse; conditions: Treg-polarizing conditions (IL-2+TGFβ), GFP+FoxP3+ cells
Procedure: (§3) Naïve CD4+ T cells from B6 mice stimulated with anti-CD3 plus anti-CD28 mAbs and differentiated in vitro under Treg-polarizing conditions (IL-2+TGFβ) were retrovirally transduced with empty pMIG vector, or with the indicated PKCθ V3 vectors. Transduced (GFP+) cells were sorted and FoxP3+ cells were analyzed by intracellular staining.
as §3, with “CD4^+” for “CD4+”, “(GFP+)” for “(GFP+) cells were sorted and”, “intracellular staining 8 hours after restimulation. Right panels represent cumulative data showing percentage of GFP+FoxP3+ cells by intracellular” for “intracellular”

CD28 = molecular target: T1, CD28 (Mus musculus, UniProt P31041); assay: Co-immunoprecipitation of Myc-tagged V3 with CD28 in PKCθ−/− primary CD4+ T cells; format: binding; conditions: Myc-tagged V3 alone, retrovirus, CD3+CD28 mAbs 5 min
T1 construct: PKCθ^−/− primary CD4^+ T cells were infected with a retrovirus expressing a Myc-tagged V3 alone; endogenous in cells; host or cells: primary CD4+ T cells of PKCθ-/- mice, retrovirally transduced only with Myc-tagged V3
Procedure: (FIG. 2A) Schematic representation of PKCθ mutants. (FIG. 2B) Jurkat E6.1 cells transfected with the indicated PKCθ or PKCδ vectors were stimulated with anti-CD3/CD28 mAbs for 5 min. (FIG. 2C-2E) PKC CD4^+ T cells were infected with retrovirus expressing empty pMIG vector, WT PKCθ, or PKCθ−ΔV3 (FIG. 2C); WT PKCθ, PKCθ/δV3, or WT PKCδ (FIG. 2D); empty pMIG-vector or Myc-tagged V3 of PKCθ (FIG. 2E). Cells were harvested and restimulated with CD3+CD28 mAbs for 5 min. Cell lysates were prepared, immunoprecipitated with anti-CD28 mAb, resolved by SDS-PAGE, and immunoblotted with the indicated Abs. (FIG. 2F) Jurkat T cells cotransfected with Myc-tagged PKCθ−V3 plus CFP-tagged CD28 were mixed with SEE-pulsed Raji B cells at a 1:1 ratio. Conjugates were fixed and stained with a rabbit anti-Myc Ab plus a secondary Alexa 488-coupled antibody. Data shown is from four studies.
Retrovirally transduced CD4^+ T cells were stimulated with anti-CD3 and anti-CD28 mAbs for 5 min. Cell lysis in 1% digitonin lysis buffer, immunoprecipitation and Western blotting were carried out as described (Yokosuka, T. et al. Immunity 29, 589-601 (2008)).
To determine whether the V3 domain is sufficient for this interaction, PKCθ^−/− primary CD4^+ T cells were infected with a retrovirus expressing a Myc-tagged V3 alone. […]

[3] = test system: B6 CD4+ T cells, Th2 differentiation; assay: In vitro Th2 differentiation of retrovirally transduced CD4+ T cells; format: cell-based, mouse; conditions: ectopic expression, Th2 differentiation conditions
Procedure: as §1, §2

T1 sequence (P31041 20-218): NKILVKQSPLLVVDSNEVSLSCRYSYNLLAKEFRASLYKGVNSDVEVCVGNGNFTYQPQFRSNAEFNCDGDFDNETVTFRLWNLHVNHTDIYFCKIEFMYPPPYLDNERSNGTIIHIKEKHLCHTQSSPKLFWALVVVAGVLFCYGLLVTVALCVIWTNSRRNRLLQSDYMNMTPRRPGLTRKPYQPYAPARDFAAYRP
T1 sequence (P06240 2-509 partner): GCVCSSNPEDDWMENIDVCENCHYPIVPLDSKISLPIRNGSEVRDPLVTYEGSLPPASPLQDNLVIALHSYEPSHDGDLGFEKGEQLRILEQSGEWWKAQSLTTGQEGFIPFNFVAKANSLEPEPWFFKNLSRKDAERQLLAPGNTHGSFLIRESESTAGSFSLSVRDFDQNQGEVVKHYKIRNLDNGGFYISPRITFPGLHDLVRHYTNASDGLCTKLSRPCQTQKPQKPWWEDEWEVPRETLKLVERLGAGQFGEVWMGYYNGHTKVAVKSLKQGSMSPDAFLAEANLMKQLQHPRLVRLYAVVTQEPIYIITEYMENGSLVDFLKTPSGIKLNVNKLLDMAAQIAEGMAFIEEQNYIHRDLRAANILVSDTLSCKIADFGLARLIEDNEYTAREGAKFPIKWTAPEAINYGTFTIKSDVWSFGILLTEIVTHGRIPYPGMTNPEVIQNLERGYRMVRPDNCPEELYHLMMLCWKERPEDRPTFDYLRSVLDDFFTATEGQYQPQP

B1: V3 domain: amino acid 282-379 of human PKCθ with N-terminal Myc tag, expressed from pMIG retroviral vector (protein)
chain: GINQKLMAEALAMIESTQQARCLRDTEQIFREGPVEIGLPCSIKNEARPPCLPTPGKREPQGISWESPLDEVDKMCHLPEPELNKERPSLQIKLKIED
modifications: left off: small tags and cut ends
notes: amino acid 282-379 of human PKCθ with N-terminal Myc tag, expressed from pMIG retroviral vector
In the case of B1, the “inhibition of Th17 differentiation” value [1] is reported as about 75%, the “promotion of Treg differentiation” value [2] is reported as about 4 fold and the “coimmunoprecipitation with CD28” value (CD28) is reported as “coimmunoprecipitated with CD28”. The “inhibition of Th2 differentiation” value [3] was about 75%.
